# In patent US20030166587A1:
# Non-standard residues stand in square brackets, D forms with d. No end group written: not given here. pS = N[C@@H](COP(=O)(O)O)C(=O)O
# Target: specific IκB E3 ubiquitin ligase activity of HeLa extract
# Assay: cell-based or functional assay
IC50 of inhibition of pIκBα ubiquitination (in vitro ubiquitination assay in HeLa extract) [µM],"TNFα-stimulated NF-κB activation (nuclear p65 staining) abolished, percent of microinjected HeLa cells [%]","inhibition of E-selectin expression, percent of microinjected HUVEC [%]",Binder
5,50 to 70,70 to 80,"CKKERLLDDRHD[pS]GLD[pS]MKDEE [pp21, doubly phosphorylated IκBα peptide]"
5,–,–,"CERLLDDRHD[pS]GLD[pS]MKDEE [pp19, doubly phosphorylated IκBα peptide]"
